The source of these data is the DeepSol protein solubility set.

A short description of this series: soluble on expression in E. coli; label from the status in PepcDB or PDB records.
In the case of “MMMEIEDDEVPSPPSPHPAGTTIGGPNSKRYSDILSLDYCTFRIPYEELNIRFRNGQKDLDRAATGVAKAAELLQKKTAGSNEPVSRESLRRHFDLLIRQVQEARKTVERITQSEIEQLDKITTRADRIHEEFEVTRDSENPRNTEKLERQKFCRFIVWHMLRCGYIEPAKVLVKEMELEDLVDVDVFENMYAVQQALLDGNIQPCLAWCDRHHRKLRKLESRIELVARQQEAVTLIELGNIPEAVAYVKKYIAPIAKGKFTEDLKKTMGAIACTLEQSRLRNPELHAADRYQKCAALFIEEAHRIFEIHGNTALATLIQYGLATQKTPSCHNDEKTPLDKQKCIVCRPDVWPIAENLPYSHVANSRIFCSLSGKLCDDDKNIPFLFPSGHVIGSAAIERLKRDDNKLYDPIHKKLIDEEEALRLYFL”, the “soluble on expression in E. coli” value was “not soluble”. As for “MGSDKIHHHHHHMLITCSESGIDFGKSLSTYIHEYLGLNRNCRLFEVKQACYSGTAGFQMAVNFILSQTSPGAKALVIASDISRFLIAEGGDALSEDWSYAEPSAGAGAVAVLVGENPEVFQIDPGANGYYGYEVMDTCRPIPDSEAGDSDLSLMSYLDCCEQTFLEYQKRVPGANYQDTFQYLAYHTPFGGMVKGAHRTMMRKVAKVKTSGIETDFLTRVKPGLNYCQRVGNIMGAALFLALASTIDQGRFDTPKRIGCFSYGSGCCSEFYSGITTPQGQERQRTFGIEKHLDRRYQLSMEEYELLFKGSGMVRFGTRNVKLDFEMIPGIMQSTQEKPRLFLEEISEFHRKYRWIS”, the entry is “not soluble”; as for “MNTPAQRHFTLEPANAERLADLSGCFNEHLRQIELRLGVEIANRGHTFHITGPEPAVTSTETLLRALYAEATGTTFNNHTIQLRLSEAHMAQIVEQTDTPQDIGIRVKRGTVRGHGANQTKYLHKIATHDINFGIGPAGTGKTFLAVASAVEALNESRVQRLILVRPAVEAGEKLGFLPGDLNQKIDPYLRPLYDALYEMLGVEKVLKLLEKNIIEIAPLAYMRGRTLNNAFVILDEAQNTTIEQMKMFLTRLGFGSTAVVTGDLTQIDIPKHLKSGLDDAIEVLHDIEGISFTFFKSHDVVRHPLVARIVSAYDKHNTHPSTTKPA”, “not soluble”.

On to “GPGSMDSMCTFIIRPPRSTYEIADLGPGVFRIGDDCTERFMRHDFELENMRGLRFQCSWFKPYPARRVPCVVYCHANCGGRYDGLEALFLLQEGFSLFCFDFCGSGMSEGEYISLGFYERQDLVAIVEFLSLKSDEVDGVALWGRSMGAVATIMYASKGSIRGFVVLFAIRPSHPCGCSSTIWWSDMVGERPGFCQRFWCTGLWSASVSAS”, for which the “soluble on expression in E. coli” value is given as “not soluble”. As for “MDAIKKKMQAMKIEKDNALDRADAAEEKVRQITEKLERVEEELRDTQKKMTQTGDDLDKAQEDLSAATSKLEEKEKTVQEAEAEVASLNRRMTLLEEELERAEERLKIATEKLEEATHNVDESERVRKVMENRSLQDEERANTVEAQLKEAQLLAEEADRKYDEVARKLAMVEADLERAEERAEAGENKIVELEEELRVVGNNLKSLEVSEEKALQREDSYEEQIRTVSSRLKEAETRAEFAERSVQKLQKEVDRLEDELVHEKERYKTISEELDSTFQELSGY”, the entry is “not soluble”; as for “MSLAPSNSLEICGDGVKNPTTFTRAQLEDMPQYQQVYSSINTWPSKKWYVGKGVHLSELLSLVGIKDDARLLKFTSQDGYTMTLTVKELLVDKRYYFPHFNDNKIGDGEGNIAGSSQGAELVEPIIALISVEGSNNPNYMNDLNTLVLMMGQRAVTEQTGNAFVKYLNKIEVLTSEVPKWDSPQANPGSGEVSAGTMIALSTARMDDDKIYYTTDGSTPNLNSPIYNWIAKRWWSARADILGTYNHPIGPINENTTIKAITIGPGKENSDVATFTYTVPVSKPASETSIVAPNEATNYPDQALEKPLQSEPKATLTDVQNHWAQKNINELIASGIAGGYPDSSFRPDNTITRAEFATMLVKAFNLQNQGGKVFADSEQHWAKEYISRATASGVVSGYDAENFGPDKLITREQMAVMISKAAKLVLKAEAMHFADSAGISEWAKEAVLAANQSGIVKGYPDNTIRPQGSATRAEAVTVIVNALTLKEGHHHHHH”, “soluble”; as for “MSLDVTAKYELIGLMAYPIRHSLSPEMQNKALEKAGLPFTYMAFEVDNDSFPGAIEGLKALKMRGTGVSMPNKQLACEYVDELTPAAKLVGAINTIVNDDGYLRGYNTDGTGHIRAIKESGFDIKGKTMVLLGAGGASTAIGAQGAIEGLKEIKLFNRRDEFFDKALAFAQRVNENTDCVVTVTDLADQQAFAEALASADILTNGTKVGMKPLENESLVNDISLLHPGLLVTECVYNPHMTKLLQQAQQAGCKTIDGYGMLLWQGAEQFTLWTGKDFPLEYVKQVMGFGAEGGSHHHHHH”, “soluble”. “MAHHHHHHMKSFSVTPRVWRRISEKNAEEGYGNDLRYLRLMIESGGCHGYAYKFLFEENSELVADEDVVVAESDVVQLPQPKSQELRTVAEGEGEGDVGESKAKGPPPRLVVDKHSVAKLLSAVVDFHSELKGSAFVVIGNELVDKSCACAMSFSMKKQQQKV”: the “soluble on expression in E. coli” value was “not soluble”. The result for “MRSIYLCRHGESELNLRGRIGGDSGLSARGKQYAYALANFIRSQGISSLKVWTSHMKRTIQTAEALGVPYEQWKALNEIDAGVCEEMTYEEIQEHYPEEFALRDQDKYRYRYPKGESYEDLVQRLEPVIMELERQENVLVICHQAVMRCLLAYFLDKSSDELPYLKCPLHTVLKLTPVAYGCRVESIYLNV” reads “soluble”. As for “MNLRTQKFHMYFKQWIELYKEGAVRPVTYQKYQMSHKHLVTLAPDLHMDELKRRTYQELINEFAANHEKQTTLDFHHHLKAAILDALDEGILEQDPTRKVLEHHHHHH”, the entry is “not soluble”; as for “MSGLDDRKKLTHAKNRKPLNDIPKSAENRPNTRSTSSRRGAEKDVPITFIGSSRTVKADLPEFTNTRSRRPLHSESKKELSRNPVSRGEEHSSSLPKSSPESSVSVMSSNASLWSACTEEVNKIGVCAKRESRNLRVYKMKSFTSNMEQILSNDNQLAPTVIRILNSRNSWCLNSCHACLTFIMENITSDNYGKRSACLKALASITNSLLDTIIGFASTKTRRIGVDVVAEERAAKATECIHNFRKIVKNRDKIYKQIDQETIYKLDAILERLKKVSSHK”, “not soluble”. The result for “MGSSQSTPKVQDANADAERIRKAQHSMAAAGGGSQCPLTPEQRAAASGENCGAGGACPVGADKASINPLNNELEHPNQKPAPDQPFALPTKREKSTIPKAGTETETWTYPSPQMFWNAMLKKGWRWQDDSLSKSDMENIISIHNANNEEAWREVLKWENLLHPECAEPKLKSFKGDAKNLSPRARFRNLFLGYDLPFDRHDWIVDRCGTKQVQYVIDYYDGGAVDPSSKLFTILDVRPAVNDIGNIWDRMVVAYWRFKFETLGFTPSLPIPPTEGHNVNH” reads “not soluble”. As to “MGSDKIHHHHHHMYKFNPQRIQIGISACLLGEKVRFDGGHKNSTYCNQEIKQFFDYVPICPEMAIGLGAPRKSIRLVRDGETILVQSGDGSLDVTDKLNEYSENKVEELDFLGGYLLCAKSPTCGMERVTEYKIGTNNGSKSGIGVFARKLMERYPLLPVEEEGRLHDMVLRENFFTRVYAYHDWHLMKHEGLTKHKLVKFHSRYKYLLMAHSPTWYRELGPIVANIEDLEQSATRYFEGFMTALKINATRKNHTSTLQHIQGYFKKHLSKEQKTELSEAIMKYREGLLPLLVPITLINHYLREFPTPYIEEQVYLNPHPEALKLRYAY”, the “soluble on expression in E. coli” value is recorded as “not soluble”.

On to “MGVKRKKMGKVAGFTEWTAEDLEAFRARWPIGTAQRLALELYQWTGARCVDVIRLGPQMVGRDGVLTYVQQKTGNPAHVPWTCPAFGLEEQRADLMRCLPVGSPVYMLTEYGKPRTQKGVSQWFSAAAREAGLESRTAHGLRKYRMNALAEHGASVLVMQSWVGHTTLLEVQEYTRRADRRRVISGGHPVKRDPAGAAAALEHHHHHH”, for which the “soluble on expression in E. coli” value is “soluble”.

With “MKQILCTLDYELYGNGTGDVFEHIIKPTEELLAIARRHGIKYTIFFEVVEFWYLKREWERGNKMGYTEDPISAMEQQLREAYLQGHDVQLHLHPQWIGAVHQDGQWRLDLSNWCLGRYQGKGEYSLLSLLKRGKETIEEIIRPVDPHYSCIALRAGGYNAQPSEEIVRAMRQVGLKVDSSIYPGGFETGALSNYDYSSVAPDLGHWYVEDRLEYSAHGATDILELPIVAFPIRRLQKYLSLDRIKALFQNRKSAADTYSAKTANKGGIWGKISYFVELEWQTWDFCLFSKNLHRRFLKRVESQRGRKEFVLVGHPKSFVSGESFNYLIGQLKSSYQFLSMTELYDQRLKIGTKKGVKDTHKPETPAPEGPSPEGPEAGL”, the “soluble on expression in E. coli” value is reported as “not soluble”. The result for “MSLARRVGIYTRISRDDEGDALGVARQHRDCERLADLRSWQAVKVYEDNDVSAYKRHVVREQFELMLSDLGAGLIDGIVAYDLDRLARQPRDLERLIEIFDERPRLEFATVTNDVNLGTPDGRTMSRIMVAFANKSSHDASRRIKRKHLELAQQGKDSGGPAPYGWLKEDRSKVDPKAAAAIREAQREILAGVRIGTIRTRWQEQGLGNPRAGTKRMAHHHVEHILTSPRLVGYRTYHGEVLNDEDGRPVMGEWEAINTLEEWEAVCAAVAERKQKQPGRSLARKYMLSGIARCGLCKTKIRGQINQRWQPGSKATKFTYQCSVVNGGCGKVGRVGEPVDRLIAELALEEQRARAAATTVPIDQRWSRNAELEQVNDDITQLVNAERSKQITVTTLLQLLPGKERQRDELKLERARFYKELKQSEAKGDAANLTLDEFFGLPIERQQEIVLHRLSAVIIHPAGKGRRRFDPSLIEPVWREGHHHHHH” reads “soluble”; that for “MSLAGTIAIKNGYVFDPLNEINGEKMDIFIRDGKVVKELSASEMKTSRVIDASGMTVMPGGVDSHSHVAGAKVNAGRSMRPEDHYKANLKKTPLTHSGSGYTVPSVYKQGYDYAAMGYTTVFEAAVPPLEARHTHEEMRATPLLDMGGYLVLGNNFFLMRYLRDGDMEKAAAYVAWMMKTHKTYGIKCVNPAGVENWAWGKNVSTLDETNIHFEITPREVIKGLTEVNETLGMPMPVHLHANNLGHPGCYAITKDSLKIPDGVKTKQNMAVEWAETKMDLSRDRSVYLTHLMFNSFAGTTWGDCESGVKDIADYINNKDHVVIDSGCTPFGEATVMTGDGPAIHDLYTLTGNKWSNTDVEMECGSGVLPFTYLKSNPVHSLQWAMGLECLLLIKDPWKTIMTTDSPNGGPFTKYPEVMTWIMSEAFRKQTFSECHKWANDRSELGGINRELSLYDLAILTRANPAKTIGMAHRKGSLGVGADGDVTVYNINPQQLDANNYEALLRTFRKAEYTVKGGEIVAVKGEIVSLPEKRTYYSEVHVENEREKEMLVDVKEWFRYYTLGFANYSTPEKYLANPTPIQVNSEGHHHHHH”, “not soluble”. The result for “MKQIESAKNQKVKDWKKLHTKKERTKTNTFLIEGEHLVEEALKSPGIVKEILVKDETRIPSDLETGIQCYMLSEDAFSAVTETETPQQIAAVCHMPEEKLATARKVLLIDAVQDPGNLGTMIRTADAAGLDAVVLGDGTADAFNGKTLRSAQGSHFHIPVVRRNLPSYVDELKAEGVKVYGTALQNGAPYQEIPQSESFALIVGNEGAGVDAALLEKTDLNLYVPLYGQAESLNVAVAAAILVYHLRG” reads “soluble”. For “MGSDKIHHHHHHMISERMERQLDFIVAIDALKDITRQSITTGSRRQENDAEHSWHLAVMAMILSEYAEDQTIDIAKVISMVLIHDLVEIYAGDTYCYDEKGYEDKAEREQEAADRLFNMLPEDQAQRMMSLWQEFEEMETKEAAFAATLDRFQPLLLNYNTEGHTWQRPGITSEKVLKRTEIAKEKVPQLYVYIERLIQRSIERGMLKP”, the “soluble on expression in E. coli” value is “not soluble”.
